Assay [1] has as its target T1, Bacillus stearothemophillus-derived lactic acid dehydrogenase (L-LACTIC DEHYDROGENASE) expressed in E. coli (Bacillus stearothemophillus, UniProt P00344 1-317).
T1 construct: purity about 80%; also called LDH
The assay can be described thus: SPR (BIAcore), LDH immobilized on CM5, 1:1 binding with mass transfer model. The protocol:
(§1) […] on CM5 were activated using EDC/NHS (equal amounts of EDC and NHS of Amine Coupling Kit (BIAcore) were mixed) (8-minute contact time), and the chip was washed with HBS-EP (BIAcore). Twenty μg/mL of LDH (Sigma, […] diluted in 10 mM acetic acid (pH5.0)) was then added to the chip. After washing the chip with HBS-EP, 1 M ethanol amine (pH 8.5) was added to inactivate the remaining activated carboxyl groups. Following the inactivation, the chip was washed with HBS-EP to remove all LDHs that had not been covalently bound. The amount of immobilized antigens was calculated 5653 RU. When binding was evaluated by adding saturating amounts of clone No. 430 to the sensor, the value was near 800 RU.
(§2) All experiments were performed in HBS-EP at 25° C., and regeneration was performed under optimum conditions. Washing was performed for 1 min using 50 mM citric acid (pH2.5).
(§3) The binding was monitored by changing the LDH concentration (5×10⁻⁸ M to 4.0×10⁻⁷ M). […] Base-line correction was also taken into consideration. Values of ka (1/Ms), kd (1/S), and KD calculated based on kinetic analysis using global fitting (BIAevaluation Ver. 3) were as shown in Table 6.
Background: SPR reads the build-up and loss of mass on a sensor chip optically.

Assay [2] addresses T1, Bacillus stearothemophillus-derived …. The assay can be described thus: SPR (BIAcore), LDH immobilized on CM5, (Langmuir) binding model. The protocol:
as §1, §2, §3

The target is the same in assay [3]. The assay can be described thus: SPR (BIAcore), LDH immobilized on CM5 at 5653 RU. The protocol: Procedure similar to that with GST was used to immobilize LDH on CM-sensor chip (Sensor Chip CM5, Research grade, BIAcore) using the amino coupling method.
as §1

For assay [4] the target is unchanged. The assay can be described thus: cell-based or functional assay.
Assay [5] shares this target. The assay can be described thus: ELISA: LDH on the plate (PBS wells as negative control), culture supernatant with VHH-cp3, anti-cp3 monoclonal and anti-mouse IgG-POD, OD 492 nm. As for the experimental part:
Similarly to anti-GST VHH, 60 clones and 36 clones were prepared as monoclones from the 3rd and 4th screenings, respectively. Next, ELISA was performed similarly as for anti-GST VHH.
LDH dissolved in PBS at 200 μg/mL was used to sensitize MaxiSorp™. Culture supernatant, 10-fold diluted mouse anti-cp3 monoclonal 3G3A8H1, and 1000-fold diluted goat anti-mouse IgG (H+L)-POD were added as primary, secondary, and tertiary antibodies, respectively, to this antigen-sensitized plate. As negative control, PBS was added instead of performing antigen sensitization.
A general note: In an ELISA, binding on a coated surface is turned into a signal by an enzyme label.

The target in assay [6] is glutathione S-transferase (GST). The assay can be described thus: SPR (BIAcore 1000), GST immobilized on CM5.
The target is the same in assay [7]. The assay can be described thus: SPR (BIAcore 1000), GST immobilized on CM5 at 1750 RU.
For assay [8] the target is unchanged. The assay can be described thus: SPR (BIAcore 1000), GST immobilized on CM5, from kinetic analysis.
Assay [9] has the same target. The assay can be described thus: cell-based or functional assay.
For assay [10] the target is unchanged. The assay can be described thus: SPR (BIAcore 1000), GST immobilized on CM5, Langmuir model, global fitting.
Assay [11] shares this target. The assay can be described thus: SPR (BIAcore 1000), GST immobilized on CM5 at 2252 RU.
Assay [12] shares this target. The assay can be described thus: SPR (BIAcore 1000), GST immobilized on CM5, global fitting; mass transport limitation, value used as the lower limit.

In general, Kd refers to the free concentration of one partner at which half of the binding sites on the other are occupied at equilibrium, for simple one-to-one binding. For orientation: koff means a measure of how fast the partners let go of each other. The low end stands for a long-lived complex, the high end for a short-lived complex. The term kon denotes the rate constant with which the complex forms. Low readings indicate slower complex formation, high ones faster complex formation.

T1 sequence (P00344 whole entry): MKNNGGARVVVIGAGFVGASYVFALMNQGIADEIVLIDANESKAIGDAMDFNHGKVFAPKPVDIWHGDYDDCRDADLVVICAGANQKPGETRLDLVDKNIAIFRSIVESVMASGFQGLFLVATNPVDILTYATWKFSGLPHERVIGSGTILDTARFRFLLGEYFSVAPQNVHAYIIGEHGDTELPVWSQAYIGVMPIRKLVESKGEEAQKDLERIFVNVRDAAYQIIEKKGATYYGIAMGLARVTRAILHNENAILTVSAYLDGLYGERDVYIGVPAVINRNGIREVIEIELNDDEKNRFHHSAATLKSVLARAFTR

B1: anti-LDH VHH clone No. 428, protein A-fused type (VHH)
VHH: QVQLVESGGGLVQPGGSLRLSCAASGFSFSRSGMSWGRQAPGKGFEWVSRISSGGATWYADSVKGRFSISRDNAKNTVYLQLDSLKTEDTGMYYCAASDRSGSTYRGQGTQVTVSS
notes: not shown: protein A part of the vector after SalI digestion and self-ligation
In assay [1], B1 showed a Ka of 2.86e+06 M⁻¹, a Kd of 350 nM, a koff of 0.00516 s⁻¹ and an association rate constant (kon) of 14800 M⁻¹ s⁻¹. In [2], this molecule displayed a Ka of 2.81e+06 M⁻¹, a Kd of 356 nM, a dissociation rate constant (koff) of 0.00513 s⁻¹ and a kon of 14400 M⁻¹ s⁻¹. Also, the “response at saturating amount (RU)” value in assay [3] is roughly 500 RU. Also, the “LDH reaction rate in the direction of lactic acid production” value (shortened to “LDH reaction rate in the direction”) in assay [4] was found to be 5 fold.

B2: anti-LDH VHH clone No. 426, protein A-fused type (VHH)
VHH: EVQLVESGGGSVQAGGSLRLSCAAPGNTYSTNLMGWFRQAPGKEREGVAAICCGRGTTFYADSVKGRFTISQDNAKKMVYLQMELLRPEDTGIYYCASGSVRGIWSGTSQYKYWGQGTQVTVSS
notes: as for B1
With B2, the binding result in assay [5] was “binds”.

B3: anti-GST VHH clone No. 29, protein A-fused type (VHH, not shown: large carriers)
VHH: EVQLVESGGGSVQAGGSLKLSCGLSGYTSSMNAMGWFRQAPGKEREGVAAVSRGGKAYYADSVKGRFTVSRDNVKNTVDLQMKGLKAEDTATYYCAATDESPLRRRFSLLDRRRYDWWGRGTQVFVSS
In the case of B3, in assay [6], the dissociation rate constant (koff) is 0.00255 s⁻¹ and the on-rate constant (kon) came out at 25400 M⁻¹ s⁻¹. In assay [7], this molecule displayed a response at saturating amount (RU) of 460 RU. For the same molecule, the equilibrium dissociation constant (Kd) in assay [8] turned out to be 100 nM.

B4: anti-LDH VHH clone No. 421, protein A-fused type (VHH)
VHH: AVQLVESGGGSVQAGGFLRLSCVASVNYCMAWFRQAPGKEREGVAAINRDGRTTAYADSVKGRFTISRGNEKNTVYLLMNNLKAEDTATYYCAAYVGGSYSCGTLENDGYKYWGQGTQVTVSS
notes: as for B1
As to B4, in assay [1], the Ka came out at 5.83e+06 M⁻¹, binding was put at a Kd of 171 nM, the koff worked out at 0.00409 s⁻¹ and the kon came to 23900 M⁻¹ s⁻¹. In addition, in [2], the Ka came to 5.83e+06 M⁻¹; the affinity, expressed as Kd, was 172 nM; the koff was found to be 0.00409 s⁻¹; the kon turned out to be 23900 M⁻¹ s⁻¹. For the same molecule, in assay [3], the “response at saturating amount (RU)” value was roughly 1400 RU. Also, the “LDH reaction rate in the direction” value in assay [4] came out at 10 fold.

B5: anti-GST VHH clone No. 75, protein A-fused type (VHH, not shown: large carriers)
VHH: AVQLVDSGGGSVQAGGSLRLSCAASGTTYCTYDIAWYRQAPEKDYEFVSVIDSDGSTRYADSVKGRFTISRDNAKNTVYLQMNSLKPEDTAMYYCKTVFKSWCSDGLGTTLPNYWGQGTQVTVSS
On to B5, for which, in [9], the GST enzyme inhibitory activity (absorbance at 340 nm, CDNB and glutathione as substrates) is greater than 1.5 µM. In [10], this molecule displayed an on-rate constant (kon) of 38100 M⁻¹ s⁻¹. Also, in assay [11], the response at saturating amount (RU) stood at 300 RU. This molecule gave a Kd in assay [8] of 24 nM. In assay [12], this molecule registered a koff of 0.000915 s⁻¹.

B6: anti-LDH VHH clone No. 418, protein A-fused type (VHH, not shown: large carriers)
VHH: EVQLVESGGGSVQAGDSLRLSCTTSGFTFANSVMVWYRQGSGNECKLVSSISTDGTTYYSTSVKGRFTISRDNAKNTVYLQMNNLKAEDTAMYYCAADFQASTVGRCDGYGYAKWGQGTQVTVSS
Regarding B6, the “LDH reaction rate in the direction” value in [4] was found to be 10 fold.

B7: anti-LDH VHH clone No. 415, protein A-fused type (VHH)
VHH: DVQLVESGGGSEQAGGSLRLSCAAPNITYCTGDRSWYRQAPGKEREFVSSINNDGTASYADSVKGRFTISQDIVKKSVYLRMNSLKPEDTAMYYCKTDFVDGTWCAIKFGRTHWGQGTQVTVSS
notes: as for B1
For B7, the binding result in assay [5] is listed as “binds”.

B8: anti-LDH VHH clone No. 434, protein A-fused type (VHH)
VHH: EVQLVESGGGSVQAGGSLRLSCAASGYTSGRNYMAWFRQAPGKEREGVGRIYSTGGSARYADSVKGRFTISQDLSNDTMYLQMNNLKPEDTGMYYCAAGKPYGDMLDARGYKYWGHGTQVTVSS
notes: as for B1
With B8, the binding result in assay [5] is reported as “binds”.

B9: anti-LDH VHH clone No. 430, protein A-fused type (VHH)
VHH: EVQLVESGGDSVQAGGSLRLSCVASSSTYSGNCMAWFRQAPGKEREGVAVVYTDDDTTYYADSVKGRFTISQDTAKNTLYLQMNSLKPEDTAMYYCATRDAWRRIGSWRDVAIYDYWGQGTQVTVSS
notes: as for B1
For B9, in assay [1], the Ka was determined as 4.04e+06 M⁻¹, the Kd came out at 248 nM, the off-rate (koff) stood at 0.00285 s⁻¹ and the on-rate constant (kon) is 11500 M⁻¹ s⁻¹. In [2], the Ka came to 3.8e+06 M⁻¹, binding was characterised by a dissociation constant (Kd) of 263 nM, the koff was found to be 0.00258 s⁻¹ and the association rate constant (kon) is 9820 M⁻¹ s⁻¹. Besides, the “response at saturating amount (RU)” value in [3] is roughly 800 RU. In [4], the “IC50 of LDH enzyme inhibition” value was roughly 400 nM.

B10: anti-LDH VHH clone No. 407, protein A-fused type (VHH)
VHH: AVQLVESGGGSVQTGGSLRLSCVASGYTYSSARIGWFRQAPGKEREGVAAILTDGVTTYYADAVKGRFTISRDNAKNTVYLQMNSLKPEDTAMYYCAIRTSPYSGGWFRVSQYNGWGQGTQVTVSS
notes: as for B1
B10: the binding result in assay [5] is “binds”.
